# Measured values from patent publication US8480647B2, “Delivery device for delivering bioactive agents to internal tissue in a body” (Bioprotect Ltd., priority 2007, dated 2013).
# How the values were obtained:
# [1] = Release of loaded agents from poly(caprolactone-L-lactide)/PEG porogen balloons; format: physicochemical; conditions: for period of constant release from balloon: loaded with 10% w/v solution
# Experimental: In a typical experiment, dichloromethane solutions of poly(caprolactone-L-lactide) 70:30 w/w, Mw=100,000 and polyethylene glycol Mw=400 (PEG400) and PEG2000 mixed at a 1, 5, 10 and 20 w/w % per polymer were used for producing balloons by dipping as described above. The balloons were immersed in water to allow the leach-out of the water soluble PEG. The balloons were analyzed for pore size, uniformity of pores throughout the membrane, and diffusion of LHRH hormone and BSA (bovine serum albumin) as representative protein. Uniform micron size holes of a similar size were generated for the 1 and 5% PEG but more holes for the 5%, while the 20% PEG generated much larger holes throughout the wall which also affects the strength of the wall. […] The balloon remain inflated for about 4 months in 0.1M phosphate buffer solution at 37° C. before signs of degradation occur measured by a significant decrease in molecular weight and change in the flexibility and clarity of the balloons. In a continuation experiment, lyophilized powder of LHRH (10 mg) on dextrose (100 mg) was dispersed in glycerol (100 mg) and injected into the 10 mm diameter balloon and release under physiological conditions was determined.
# [2] = Release from L-PLA-co PEG5000 hydrogel-wall balloons in aqueous media; format: physicochemical; conditions: 1 cm balloons of L-PLA-co PEG5000 triblock or 50:50 mixture with L-PLA, 200 and 300 micron wall thicknesses
# Experimental: In a similar experiment, biodegradable balloons of 1 cm diameter were prepared from triblock copolymers of L-PLA-co PEG5000, Mw=80,000 or in a 50:50 mixture with L-PLA Mw=120,000 by the solvent casting on a gelatin mold method. Balloons with 200 and 300 micron wall thicknesses were prepared. These balloons swell when inserted in aqueous media to form hydrogel walls which are permeable to water soluble molecules.
Compound,release behaviour in comparison with the other loaded agents ([1]; poly(caprolactone-L-lactide)/PEG balloons),release from hydrogel-wall balloons [2],period of constant release from balloon ([1]; 5% PEG balloons of poly(caprolactone-L-lactide) 70:30),period of constant release from balloon ([1]; 20% PEG balloons of poly(caprolactone-L-lactide) 70:30),"release of native LHRH from balloon, determined by HPLC ([1]; lyophilized LHRH (10 mg) on dextrose (100 mg) dispersed in glycerol (100 mg), 10 mm diameter balloon, physiological conditions)"
O=c1[nH]cc(F)c(=O)[nH]1 [5-FU],released much faster for a shorter time period at a zero order profile,constantly release at high amounts for weeks,,,
CN(Cc1cnc2nc(N)nc(N)c2n1)c1ccc(C(=O)N[C@@H](CCC(=O)O)C(=O)O)cc1 [methotrexate],,constantly release at high amounts for weeks,,,
"LHRH: LHRH hormone, therapeutic peptide loaded in the balloon",,released at low concentrations over time,a few months,weeks,constantly released for weeks
